Bridge positions count the residues as written; N and C are the ends. Square brackets hold non-standard residues; d marks the D form. Ends that are not written are not given here. Hyp = O=C(O)[C@@H]1C[C@@H](O)CN1; Cit = NC(=O)NCCC[C@H](N)C(=O)O
T1: hAMY3R (human, UniProt P30988)
T1 sequence 1: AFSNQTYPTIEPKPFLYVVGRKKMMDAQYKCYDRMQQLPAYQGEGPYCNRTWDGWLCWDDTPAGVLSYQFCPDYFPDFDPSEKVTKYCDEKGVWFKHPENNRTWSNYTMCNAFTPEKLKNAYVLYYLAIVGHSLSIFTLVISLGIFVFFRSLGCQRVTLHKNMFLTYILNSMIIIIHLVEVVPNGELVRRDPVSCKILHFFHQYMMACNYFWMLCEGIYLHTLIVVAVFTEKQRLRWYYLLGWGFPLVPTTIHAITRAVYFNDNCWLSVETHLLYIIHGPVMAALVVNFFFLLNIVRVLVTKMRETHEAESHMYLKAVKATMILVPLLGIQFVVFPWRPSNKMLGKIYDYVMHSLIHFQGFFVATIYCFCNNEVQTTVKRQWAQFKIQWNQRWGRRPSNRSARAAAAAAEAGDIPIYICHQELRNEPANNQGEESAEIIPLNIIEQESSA
T1 sequence 2: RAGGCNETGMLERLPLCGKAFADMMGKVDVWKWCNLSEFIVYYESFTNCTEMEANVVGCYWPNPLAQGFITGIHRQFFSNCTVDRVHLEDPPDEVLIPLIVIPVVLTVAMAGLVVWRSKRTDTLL

B1: SEQ ID NO: 280 (peptide)
peptide: GCRTGTCTVQ[Cit]LAHQIYQFTDKDKDNVAPRTNIGPQG[Hyp]-NH2
modifications: disulfide 2-7 (inferred); ends not checked
B2: SEQ ID NO: 270 (peptide)
peptide: GCRFGTCTVQ[Cit]LAHQIYQFTDKDKDNVAPRTNVGPNG[Hyp]-NH2
modifications: disulfide 2-7 (inferred); ends not checked
B3: SEQ ID NO: 268 (peptide)
peptide: KCNTATCTVQ[Cit]LAHQIYQFTDKDKDNVAPPTNVGSNG[Hyp]-NH2
modifications: disulfide 2-7 (inferred); ends not checked
B4: SEQ ID NO: 273 (peptide)
peptide: GCRTGTCTVQ[Cit]LAHQIYQFTDKDKDNVAPRTNVGPQGY-NH2
modifications: disulfide 2-7 (inferred); ends not checked
B5: SEQ ID NO: 278 (peptide)
peptide: GCRFGTCTVQ[Cit]LAHQIYQFTDKDKDNVAPRTNVSPQGY-NH2
modifications: disulfide 2-7 (inferred); ends not checked
B6: SEQ ID NO: 264 (peptide)
peptide: GCRFGTCTVQ[Cit]LAHFLYQFTDKDKDNVAPRTNVGSNTY-NH2
modifications: disulfide 2-7 (inferred); ends not checked
B7: SEQ ID NO: 28 (peptide)
peptide: KCNTATCTVQRLAHQIYQFTDKDKDNVAPATNVGSNG[Hyp]-NH2
modifications: disulfide 2-7 (inferred); ends not checked
B8: SEQ ID NO: 260 (peptide)
peptide: GCRFGTCTVQ[Cit]LAHQIYQFTDKDKDNVAPRTNIGPQG[Hyp]-NH2
modifications: disulfide 2-7 (inferred); ends not checked
B9: SEQ ID NO: 27 (peptide)
peptide: KCNTATCTVQRLAHQIYQFTDKDKDNAAPPTNVGSNG[Hyp]-NH2
modifications: disulfide 2-7 (inferred); ends not checked
B10: SEQ ID NO: 267 (peptide)
peptide: GCRFGTCTVQ[Cit]LAHQIYQFTDKDKDNVAPRTNVGPQG[Hyp]-NH2
modifications: disulfide 2-7 (inferred); ends not checked
B11: SEQ ID NO: 261 (peptide)
peptide: GCRTGTCTVQ[Cit]LAHQIYQFTDKDKDNVAPRTNVGPQG[Hyp]-NH2
modifications: disulfide 2-7 (inferred); ends not checked
B12: SEQ ID NO: 262 (peptide)
peptide: KCNTATCTVQ[Cit]LAHQIYQFTDKDKDNVAAPTNVGSNG[Hyp]-NH2
modifications: disulfide 2-7 (inferred); ends not checked
B13: SEQ ID NO: 263 (peptide)
peptide: GCRFGTCTVQ[Cit]LAHFLYQFTDKDKDNVAPRTNVGPQGY-NH2
modifications: disulfide 2-7 (inferred); ends not checked
B14: SEQ ID NO: 272 (peptide)
peptide: KCNTATCTVQ[Cit]LAHQIYQFTDKDKDNVAPRTEVGSNGY-NH2
modifications: disulfide 2-7 (inferred); ends not checked
B15: SEQ ID NO: 277 (peptide)
peptide: GCRTGTCTVQ[Cit]LAHQIYQFTDKDKDNVAPRTKIGPNG[Hyp]-NH2
modifications: disulfide 2-7 (inferred); ends not checked
B16: SEQ ID NO: 266 (peptide)
peptide: KCNTATCTVQ[Cit]LAEQIYQFTDKDKDNVSPPTNVGSNG[Hyp]-NH2
modifications: disulfide 2-7 (inferred); ends not checked
B17: SEQ ID NO: 279 (peptide)
peptide: GCRFGTCTVQ[Cit]LAHFLYQFTDKDKDNVAPRTKVGSNGY-NH2
modifications: disulfide 2-7 (inferred); ends not checked
B18: SEQ ID NO: 281 (peptide)
peptide: GCRTGTCTVQ[Cit]LAHQIYQFTDKDKDNVAPRSNVGPQG[Hyp]-NH2
modifications: disulfide 2-7 (inferred); ends not checked
B19: SEQ ID NO: 276 (peptide)
peptide: KCNTATCTVQ[Cit]LAHQIYQATDKDKDNVAPPTNVGSNG[Hyp]-NH2
modifications: disulfide 2-7 (inferred); ends not checked
B20: SEQ ID NO: 271 (peptide)
peptide: GCRFGTCTVQ[Cit]LAHQIYQFTDKDKDNVAPRTNVSPNGY-NH2
modifications: disulfide 2-7 (inferred); ends not checked
B21: SEQ ID NO: 274 (peptide)
peptide: GCRFGTCTVQ[Cit]LAHQIYQFTDKDKDNVAPRTKIGPQG[Hyp]-NH2
modifications: disulfide 2-7 (inferred); ends not checked
B22: SEQ ID NO: 265 (peptide)
peptide: KCNTATCTVQ[Cit]LAHQIYQFDKDKDNVAPPTNVGSNG[Hyp]-NH2
modifications: disulfide 2-7 (inferred); ends not checked
B23: SEQ ID NO: 259 (peptide)
peptide: GCRFGTCTVQ[Cit]LAHQIYQFTDKDKDNVAPRTKVGPQG[Hyp]-NH2
modifications: disulfide 2-7 (inferred); ends not checked
B24: SEQ ID NO: 269 (peptide)
peptide: GCRTGTCTVQ[Cit]LAHQIYQFTDKDKDNVAPRTNVGPNGY-NH2
modifications: disulfide 2-7 (inferred); ends not checked
B25: SEQ ID NO: 275 (peptide)
peptide: GCRFGTCTVQ[Cit]LAHQIYQFTDKDKDNVAPRTKISPNG[Hyp]-NH2
modifications: disulfide 2-7 (inferred); ends not checked

What was measured:
hAM1R = hAM1R (human, UniProt Q16602); test: cell-based or functional assay
hAMY3R = target: T1, hAMY3R; test: cell-based or functional assay

Binder | hAM1R EC50 (cAMP) (hAM1R) [nM] | hAMY3R EC50 (cAMP) (hAMY3R) [nM]
B1 | > 5000 | 0.024
B2 | 1880 | 0.003
B3 | > 5000 | 0.014
B4 | > 5000 | 0.021
B5 | 155 | 0.011
B6 | 3470 | 0.006
B7 | > 5000 | 0.008
B8 | 4160 | 0.011
B9 | > 5000 | 0.008
B10 | 2490 | 0.007
B11 | > 5000 | 0.018
B12 | > 5000 | 0.014
B13 | 1280 | 0.005
B14 | > 5000 | 0.009
B15 | > 5000 | 0.058
B16 | > 5000 | 0.053
B17 | 241 | 0.013
B18 | > 5000 | 0.034
B19 | > 5000 | 0.056
B20 | 96.6 | 0.01
B21 | 877 | 0.019
B22 | > 5000 | 0.03
B23 | 4320 | 0.013
B24 | > 5000 | 0.005
B25 | > 5000 | 0.02

From patent US12139520B2 (priority 2020, dated 2024)
